Measurements as given in patent US20240366624A1, “METHODS AND COMPOSITIONS FOR TREATING THROMBOTIC DISEASE” (Washington University, priority 2023, published 2024).

Molecular target: T1, ERO1α (Homo sapiens, UniProt Q96HE7)
T1 sequence (Q96HE7 24-468): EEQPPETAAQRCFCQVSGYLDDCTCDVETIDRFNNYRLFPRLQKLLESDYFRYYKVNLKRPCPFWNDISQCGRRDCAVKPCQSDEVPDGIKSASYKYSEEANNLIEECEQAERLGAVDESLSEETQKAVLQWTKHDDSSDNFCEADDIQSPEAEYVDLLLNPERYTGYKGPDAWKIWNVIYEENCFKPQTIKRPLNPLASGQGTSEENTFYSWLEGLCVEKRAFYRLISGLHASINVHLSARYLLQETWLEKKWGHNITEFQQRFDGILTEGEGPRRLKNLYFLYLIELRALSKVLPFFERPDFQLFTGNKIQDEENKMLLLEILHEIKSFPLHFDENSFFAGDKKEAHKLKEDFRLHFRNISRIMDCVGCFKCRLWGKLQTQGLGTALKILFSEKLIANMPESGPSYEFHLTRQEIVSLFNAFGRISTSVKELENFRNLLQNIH
Test: Bio-layer interferometry, STIM1 on biotinylated ERO1α biosensor
Assay type: binding
Protocol: FIG. 11(A-Q) is an exemplary embodiment of ERO1α (endoplasmic reticulum oxidoreductase 1α) regulating the function of Ca^2+ signaling molecules, STIM1 (stromal interaction molecule 1) and SERCA2 (sarco/endoplasmic reticulum Ca^2+ ATPase 2), and enhancing cytosolic Ca^2+ levels during platelet activation in accordance with the present disclosure. FIG. 11A: Mass spectrometric analysis was performed to identify proteins interacting with ERO1α in resting and thrombin-activated human platelets. […] FIG. 11B and FIG. 11C: Immunoprecipitation of ERO1α with lysates of resting and thrombin (Thr)-activated human platelets, followed by immunoblotting and densitometry. FIG. 11(D-F): Ca^2+ release and influx of wild type (WT) and Ero1α-null platelets were assessed in response to 0.1 U/mL thrombin, 2 μM A23187, or 20 μM thapsigargin (TG), followed by the addition of 1 mM CaCl2. The Ca^2+ signal was quantified by the area under the curve (AUC). […] After incubation with a different concentration of wtSTIM1 and mutant STIM1 (mSTIM1), the specific interaction between ERO1α and STIM1 was measured by subtracting the nonspecific binding. The dissociation constant, KD, was calculated from the Kon and Koff values. […] Please note that the unmodified peptide was not detected. […] P values determined by unpaired Student t test. […]

B1: mutant STIM1: STIM1 with Cys49 and Cys56 mutated to Ser (protein)
chain: LSHSHSEKATGTSSGANSEESTAAEFSRIDKPLSHSEDEKLSFEAVRNIHKLMDDDANGDVDVEESDEFLREDLNYHDPTVKHSTFHGEDKLISVEDLWKAWKSSEVYNWTVDEVVQWLITYVELPQYEETFRKLQLSGHAMPRLAVTNTTMTGTVLKMTDRSHRQKLQLKALDTVLFGPPLLTRHNHLKD
  KD, ERO1α binding to STIM1: minimal and not concentration dependent
